Measurements published in paper PMC8622166.
Blank lines part the entries; values can stand above or below the substance they belong to.

How the values were obtained:
[1] = biological target: non-isoprenylated RAC1 full-length (RAC1^FL) (human) (UniProt P63000); experiment: stopped-flow fluorimetry; kon from kobs against increasing GDI concentrations mixed with 0.2 µM mdGDP-bound RHO GTPase; koff by displacement with excess unlabeled GDP-bound RHO protein; Kd = koff/kon; 25 °C, 30 mM Tris/HCl pH 7.5, 10 mM K2HPO4/KH2PO4 pH 7.5, 5 mM MgCl2, 3 mM DTT
[2] = biological target: non-isoprenylated RAC1 full-length (RAC1^FL) (human) (UniProt P63000); experiment: fluorescence polarisation; increasing GDI1 (variants) titrated to 0.2 µM mdGDP-bound RHO protein, 200 µL; 25 °C, 30 mM Tris/HCl pH 7.5, 10 mM K2HPO4/KH2PO4 pH 7.5, 5 mM MgCl2, 3 mM DTT; quadratic binding equation
[3] = biological target: geranylgeranylated RAC1 (RAC1^GG) (human) (UniProt P63000); experiment: stopped-flow fluorimetry; association (kobs) at one concentration: 2 µM GDI mixed with 0.2 µM mdGDP-bound RHO GTPase; 25 °C, 30 mM Tris/HCl pH 7.5, 10 mM K2HPO4/KH2PO4 pH 7.5, 5 mM MgCl2, 3 mM DTT
[4] = biological target: non-isoprenylated RAC1 full-length (RAC1^FL) (human) (UniProt P63000); experiment: as above
CDC42 (Homo sapiens) = CDC42 (Homo sapiens) (UniProt P60953); conditions: cited from earlier work
Chain of CDC42 (Homo sapiens) (P60953 1-188): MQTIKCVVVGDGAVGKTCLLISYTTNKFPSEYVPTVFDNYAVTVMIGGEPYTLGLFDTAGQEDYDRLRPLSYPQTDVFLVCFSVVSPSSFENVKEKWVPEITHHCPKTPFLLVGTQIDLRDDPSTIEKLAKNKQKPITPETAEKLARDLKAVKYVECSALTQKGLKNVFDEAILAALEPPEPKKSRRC

RAC1 (Homo sapiens) = RAC1 (Homo sapiens) (UniProt P63000); conditions: cited from earlier work
RHOA (Homo sapiens) = RHOA (Homo sapiens) (UniProt P61586); conditions: cited from earlier work
Chain of RHOA (Homo sapiens) (P61586 1-190): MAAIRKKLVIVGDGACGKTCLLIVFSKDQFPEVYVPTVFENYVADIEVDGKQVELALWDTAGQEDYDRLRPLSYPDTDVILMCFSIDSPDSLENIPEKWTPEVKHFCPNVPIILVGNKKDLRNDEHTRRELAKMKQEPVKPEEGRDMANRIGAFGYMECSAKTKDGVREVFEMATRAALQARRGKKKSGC

[5] = biological target: RAC1, RAC3, RHOG and RHOA; experiment: stopped-flow fluorimetry; kon from kobs against increasing GDI concentrations mixed with 0.2 µM mdGDP-bound RHO GTPase; koff by displacement with excess unlabeled GDP-bound RHO protein; Kd = koff/kon; 25 °C, 30 mM Tris/HCl pH 7.5, 10 mM K2HPO4/KH2PO4 pH 7.5, 5 mM MgCl2, 3 mM DTT
[6] = biological target: geranylgeranylated RAC1 (RAC1^GG) (human) (UniProt P63000); experiment: as above
[7] = biological target: RAC1^ΔC10 (C-terminal truncated variant lacking HVR-CAAX) (human) (UniProt P63000); experiment: fluorescence polarisation; increasing GDI1 (variants) titrated to 0.2 µM mdGDP-bound RHO protein, 200 µL; 25 °C, 30 mM Tris/HCl pH 7.5, 10 mM K2HPO4/KH2PO4 pH 7.5, 5 mM MgCl2, 3 mM DTT; quadratic binding equation
[8] = biological target: geranylgeranylated RAC1 (RAC1^GG) (human) (UniProt P63000); experiment: not stated

- fold difference in kon against GDI1 wt [1]: > 100 fold
- fold change of Kd against GDI1^WT [2]: 440 fold
- fold slower association rate than GDI1^WT [3]: < 24 fold
- fold slower association rate than GDI1^WT [4]: < 24 fold
Substance: GDI1^ΔN15 (from UniProt P52565 16-204) (domain or fragment)

Substance: GDI1 (from UniProt P52565)
- Kd (CDC42 (Homo sapiens)): 1.6 nM
- Kd (RAC1 (Homo sapiens)): 0.4 nM
- Kd (RHOA (Homo sapiens)): 0.005 nM

- fold difference in kon against GDI1 wt [1]: > 100 fold
- fold change of Kd against GDI1^WT [2]: 140 fold
- fold slower association rate than GDI1^WT [3]: < 24 fold
- fold slower association rate than GDI1^WT [4]: < 24 fold
Substance: GDI1^ΔC6 (from UniProt P52565 1-198) (domain or fragment)

- Kd [5]: 900 to 3200 nM
- fold difference of koff between RAC1^GG and RAC1^FL [6]: 3 fold
- fold higher affinity than for RAC1^FL (Kd from koff/kon) [6]: 7 fold
- fold lower affinity than for RAC1 [7]: 26 fold
- Kd [8]: 180 nM
- fold lower Kd than for RAC1^FL [8]: 2.5 to 4.6 fold
Substance: GDI1 (RHOGDI1), wild type (from UniProt P52565 1-204) (natural protein)
